How the values were obtained:
[1] = tested on: PEX7–GFP influx into YG hydrogel; assay: Influx of PEX7–GFP into YG hydrogel in the presence of PEX39 (Fig. 6f-i); format: biochemical, yeast; conditions: for Percent PEX7-GFP influx (+ PTS2 peptide + PEX5-21) / Percent PEX7-GFP influx (+ PTS2 peptide + PEX5S) / Percent PEX7-GFP influx: 60 min; for Percent PEX7-GFP influx: PEX7-GFP without PTS2 peptide/PEX5
Protocol: Fig. 6 PEX39 can extract PEX7 from the YG phase. a, YG hydrogels were prepared in a glass-bottomed dish and pre-equilibrated with PEX7–GFP. PEX39 was then added to the buffer and a point-scanning confocal microscope was used to follow the PEX7–GFP fluorescence over time. b, PEX7–GFP signal in the gel over time at the indicated molar ratios of wild-type PEX39 (relative to PEX7). The mean (bold line) and range (shading) of three experiments are shown. c, As in b using a fourfold excess of wild-type (WT) PEX39 or mutants harbouring alanines in place of the APH (∆APH), the RPWE motif (∆RPWE) or both (∆APH + ∆RPWE). d, As in b using PEX7–GFP or PEX5–GFP and a fourfold excess of wild-type PEX39. e, As in b using a fourfold excess of PTS2 peptide and the PEX7-binding chimaeric receptor PEX5-21 (left) or PTS2 peptide and the non-PEX7-binding receptor isoform PEX5S (right). Wild-type PEX39 was titrated as indicated. f, YG hydrogel droplets were incubated with PEX7–GFP in the presence of PEX39. The effect of PEX39 on the influx of PEX7–GFP into the gel was then assessed using a point-scanning confocal microscope. g, PEX7–GFP influx in the presence of the indicated molar ratios of wild-type PEX39 (relative to PEX7) with or without a fourfold excess of PTS2 peptide and either PEX5S or PEX5-21. The mean (bars) and individual values (circles) of three experiments are shown. h, As in g using PEX7–GFP or PEX5–GFP and the indicated molar ratios of wild-type PEX39. i, As in g using wild-type PEX39 or the indicated mutants. Source numerical data are provided. Source data
A solution of the purified wild-type YG-domain polypeptide (or the variant lacking the KPWE motif) was concentrated to 2 mM in 50 mM HEPES·NaOH pH 7.8 at RT, 2 M urea and 2 mM TCEP. Aliquots of 2 µl were then spotted on the bottom of multiple wells of a 96-well glass-bottomed plate (Cellvis, P96-1.5H-N), which was then sealed with a gas-impermeable AlumaSeal II film (Hampton Research, HR8-069) to prevent desiccation and incubated at RT for 24 h. Before each assay, the resulting gels were equilibrated overnight at RT in a 100-fold excess of Assay Buffer (25 mM HEPES·NaOH pH 7.8 at RT, 150 mM NaCl and 1 mM TCEP). A 0.5 µM solution of fluorescently labelled protein in Assay Buffer was then added to the samples, with or without additional components at the concentrations indicated in the text, and incubated at RT. Gels were imaged at the times indicated in the text using a Nikon A1R point-scanning confocal system consisting of an inverted Nikon Eclipse Ti microscope and a Nikon ×20 0.75 NA Plan Apo air objective. The objective was centred on the gel edge and focus was maintained 5 µm above the glass surface using the Nikon Perfect Focus System. Fluorescence was excited through a 405/488/561/647 quad-band dichroic (Chroma), using a 488-nm solid-state laser (Coherent) and a galvano scanner. A 50-nm emission band was collected on a gallium arsenide phosphide detector, using an ET525/50m (525 ± 25 nm) single-band bandpass filter (Chroma) and a pinhole dilated to 0.9 Airy units. Images were acquired using the Nikon NIS-Elements software with a pixel size of 1 µm and a 12-bit digitizer. Imaging parameters were configured to maximize the SNR while avoiding saturation. All samples intended to be compared were imaged using identical acquisition settings.

[2] = tested on: PEX39–PEX7 complex and PTS2–GFP cargo; assay: Bead-binding assay: recruitment of PTS2–GFP to PEX7- or PEX39-coated beads (Fig. 7b,c); design: species or system yeast (S. cerevisiae)
Source text: (§1) Cysteine-containing peptides were covalently conjugated to thiol-reactive SulfoLink coupling resin (Thermo Fisher, catalogue number 20401) according to the manufacturer’s instructions. The prepared beads were then mixed with Assay Buffer containing the fluorescently labelled protein as well as additional components indicated in the text, and the resulting bead suspensions were transferred to a 384-well glass-bottomed plate (Cellvis, P384-1.5H-N). GST-fusion proteins were instead mixed with glutathione agarose 4B (Prometheus, 20-543) in Assay Buffer containing the fluorescently labelled protein and additional components indicated in the text; the resulting bead suspensions were then transferred to a glass-bottomed plate as above. The plates were incubated at RT for the durations specified in the text and directly imaged on the spinning-disk confocal platform described earlier for peroxisomal import reactions in Xenopus egg extract. Note that imaging the beads directly in the binding reaction preserves the equilibrium and thereby allows even weak interactions to be detected. Fluorescence was collected through a Nikon ×10 0.45 NA Plan Apo air objective, and images were acquired using the Nikon NIS-Elements software and a 16-bit digitizer without binning. Imaging parameters were configured to maximize the SNR while avoiding saturation. […]

yeast PEX7 = assay: Bead-binding assay: PEX39 and PEX7 (Fig. 5c, Extended Data Fig. 9a); design: species or system yeast (S. cerevisiae); conditions: PEX39-coated beads
Source text: as §1

B1: PEX39 (WT): PEX39 from S. cerevisiae (GenBank accession no. NP_012546.4) (protein)
chain: MAAGGELSYEELLDHILNNKPIPNIVEVPNVTLDEGLASTPSLRPRPRPWEGQLQHQSHQGSLDKPNISLDIDQESLEGMTSLTRLSECYDIQSKLQINDSDNDNDDNNNDNNKGDGNDDDNNTVTANPTAR
modifications: left off: GST, N-terminal, cleaved
**Q.** With B1 as the molecule, how does the “Effect on influx of PEX7–GFP into YG hydrogel” value ([1]; PEX7–GFP alone or with PTS2 peptide and PEX5S) read?
**A.** Its value is “blocked the influx of PEX7–GFP alone as well as PEX7–GFP in the presence of a PTS2 peptide and PEX5S”.

**Q.** And the “Effect on influx of PEX7–GFP into YG hydrogel, PEX5-21 complex” value ([1]; PEX7–GFP in complex with PTS2 peptide and PEX5-21)?
**A.** The value was “much less inhibitory”.

**Q.** And the “Percent PEX7-GFP influx (+ PTS2 peptide + PEX5-21)” value ([1]; PEX39 1×, replicate 1)?
**A.** The value was 66.880%.

**Q.** What about the “Percent PEX7-GFP influx (+ PTS2 peptide + PEX5-21)” value ([1]; PEX39 1×, replicate 2) of the same molecule?
**A.** Its value is 83.899%.

**Q.** What about the “Percent PEX7-GFP influx (+ PTS2 peptide + PEX5-21)” value ([1]; PEX39 1×, replicate 3) of the same molecule?
**A.** Its value is 114.523%.

**Q.** And the “Percent PEX7-GFP influx (+ PTS2 peptide + PEX5S)” value ([1]; PEX39 1×, replicate 1)?
**A.** The value was 23.191%.

**Q.** What about the “Percent PEX7-GFP influx (+ PTS2 peptide + PEX5S)” value ([1]; PEX39 1×, replicate 2) of the same molecule?
**A.** The value was 21.558%.

**Q.** And the “Percent PEX7-GFP influx (+ PTS2 peptide + PEX5S)” value ([1]; PEX39 1×, replicate 3)?
**A.** The value was 32.481%.

**Q.** What about the “Percent PEX7-GFP influx” value ([1]; PEX39 1×, replicate 1) of the same molecule?
**A.** Its value is 49.645%.

**Q.** And the “Percent PEX7-GFP influx” value ([1]; PEX39 1×, replicate 2)?
**A.** Its value is 60.527%.

**Q.** And the “Percent PEX7-GFP influx” value ([1]; PEX39 1×, replicate 3)?
**A.** Its value is 62.401%.

**Q.** And the “Percent PEX7-GFP influx (+ PTS2 peptide + PEX5-21)” value ([1]; PEX39 2×, replicate 1)?
**A.** Its value is 50.795%.

**Q.** And the “Percent PEX7-GFP influx (+ PTS2 peptide + PEX5-21)” value ([1]; PEX39 2×, replicate 2)?
**A.** Its value is 68.223%.

**Q.** And the “Percent PEX7-GFP influx (+ PTS2 peptide + PEX5-21)” value ([1]; PEX39 2×, replicate 3)?
**A.** The value was 111.257%.

**Q.** And the “Percent PEX7-GFP influx (+ PTS2 peptide + PEX5S)” value ([1]; PEX39 2×, replicate 1)?
**A.** Its value is 5.154%.

**Q.** And the “Percent PEX7-GFP influx (+ PTS2 peptide + PEX5S)” value ([1]; PEX39 2×, replicate 2)?
**A.** The value was 5.013%.

**Q.** And the “Percent PEX7-GFP influx (+ PTS2 peptide + PEX5S)” value ([1]; PEX39 2×, replicate 3)?
**A.** The value was 4.961%.

**Q.** What about the “Percent PEX7-GFP influx” value ([1]; PEX39 2×, replicate 1) of the same molecule?
**A.** Its value is 14.576%.

**Q.** And the “Percent PEX7-GFP influx” value ([1]; PEX39 2×, replicate 2)?
**A.** The value was 15.433%.

**Q.** And the “Percent PEX7-GFP influx” value ([1]; PEX39 2×, replicate 3)?
**A.** The value was 14.730%.

**Q.** And the “Percent PEX7-GFP influx (+ PTS2 peptide + PEX5-21)” value ([1]; PEX39 4×, replicate 1)?
**A.** The value was 53.842%.

**Q.** And the “Percent PEX7-GFP influx (+ PTS2 peptide + PEX5-21)” value ([1]; PEX39 4×, replicate 2)?
**A.** Its value is 47.057%.

**Q.** And the “Percent PEX7-GFP influx (+ PTS2 peptide + PEX5-21)” value ([1]; PEX39 4×, replicate 3)?
**A.** The value was 58.495%.

**Q.** What about the “Percent PEX7-GFP influx (+ PTS2 peptide + PEX5S)” value ([1]; PEX39 4×, replicate 1) of the same molecule?
**A.** Its value is 2.693%.

**Q.** And the “Percent PEX7-GFP influx (+ PTS2 peptide + PEX5S)” value ([1]; PEX39 4×, replicate 2)?
**A.** The value was 2.263%.

**Q.** What about the “Percent PEX7-GFP influx (+ PTS2 peptide + PEX5S)” value ([1]; PEX39 4×, replicate 3) of the same molecule?
**A.** The value was 2.329%.

**Q.** What about the “Percent PEX7-GFP influx” value ([1]; PEX39 at 4× molar ratio, replicate 1) of the same molecule?
**A.** The value was 7.357%.

**Q.** And the “Percent PEX7-GFP influx” value ([1]; PEX39 at 4× molar ratio, replicate 2)?
**A.** The value was 5.802%.

**Q.** What about the “Percent PEX7-GFP influx” value ([1]; PEX39 at 4× molar ratio, replicate 3) of the same molecule?
**A.** Its value is 7.696%.

**Q.** What about the “Recruitment of PTS2–GFP cargo to PEX39–PEX7” value [2] of the same molecule?
**A.** The value was “PTS2–GFP cargo was indeed recruited to PEX7-coated beads in the presence of PEX39”.

**Q.** And the “Recruitment / binding of PEX7 in words” value (yeast PEX7)?
**A.** The value was “could recruit PEX7–GFP”.

— paper PMC12173945, “Import mechanism of peroxisomal proteins with an N-terminal signal sequence” (Nature Cell Biology, 2025)
